Data published in US20220280663A1, “[…] TARGETED […] ACTIVE SUBSTANCE OR LABEL […] SYSTEM” (CELLIS AG, priority 2016, published 2022).

Tests used:
Assay type in all cases: cell-based
[1] = system: CD45^+ leukocyte cell; experiment: Uptake and storage of iron binding proteins by CD45+ leukocyte cells
Experimental: (§1) Obtained cells are incubated in ferritin solution for a time and at the concentration sufficient to ensure proper ratio of ferritin/cell for their full load and also to ensure proper drug content to obtain therapeutic effect or contrast for proper imaging. The time and concentration may vary depending on the number of molecules encapsulated/adsorbed into the ferritin cage, status of cell activation, condition and number of their intended administration.
For example, to ensure proper load with ferritins, cells are incubated for 1-4 hours in ferritin solution 0.8 mg/ml in standard culture conditions. The frame of ferritin concentration may vary at least between 0.01 and 4 mg/ml as well as incubation time (5 min-6 hours or more). Adjusting time and concentration of ferritin load to cells, the influence of ferritin and treatment conditions on cell viability should be minded.
as §1, with “haemoglobin” for “ferritin”, “haemoglobin/cell” for “ferritin/cell”, “linked with” for “encapsulated/adsorbed into”, “haemoglobin molecule,” for “ferritin cage,”, “administration. […]” for “administration.”

[2] = system: cancer cells; experiment: Transfer of iron binding proteins from loaded leukocytes to co-cultured cancer cells
Source text: However, in case of cancer cells the ratio of both cell types is crucial. The more macrophages the better and faster the transport is. The most efficient transfer to the cancer cells was observed when ratio of macrophages to cancer cells was 1:1 or more.
This transfer of compounds conjugated with anticancer drugs made the effect inducing apoptosis in cancer cells (FIG. 6, 13).
However, the ratio of both cell types is important. The more monocytes the better and faster the transport is. The most efficient transfer to the cancer cells was observed when ratio of monocytes to cancer cells was 1:1 or more.
However, the ratio of both cell types is crucial. The more granulocytes the better and faster the transport is. The most efficient transfer to the cancer cells was observed when ratio of granulocytes to cancer cells was 1:1 or more.
However, the ratio of both cell types is crucial. The more lymphocytes the better and faster the transport is. The most efficient transfer to the cancer cells was observed when ratio of lymphocytes to cancer cells was 1:1 or more.

[3] = system: EMT6; experiment: Ferritin transfer from RAW264.7 macrophages to EMT6 cells under oxidative stress
Source text: FIG. 27: Ferritin transfer was examined in cancer cells (EMT6) co-cultured with ferritin-loaded macrophages (RAW264.7) for 2 hrs. Three experimental conditions were used: “ctrl” (normal co-culture, no stress); “EMT6 OS” when EMT6 cells were subjected to the oxidative stress before co-culture and then co-cultured with macrophages at normoxic conditions and “co-culture OS” when both cell types were subjected to the oxidative stress before the co-culture. […] It can be related with higher load of ferritin due to oxidative stress and therefore more efficient transfer, or oxidative stress triggers macrophages to more efficiently deliver ferritins to cancer cells in order to reduce oxidative stress in neighboring cells.

B1: ferritins: recombinant mouse ferritin protein of SEQ ID NO: 4; mammalian ferritin H and/or L homopolymers (protein)
chain: MTTASPSQVRQNYHQDAEAAINRQINLELYASYVYLSMSCYFDRDDVALKNFAKYFLHQSHEEREHAEKLMKLQNQRGGRIFLQDIKKPDRDDWESGLNAMECALHLEKSVNQSLLELHKLATDKNDPHLCDFIETYYLSEQVKSIKELGDHVTNLRKMGAPEAGMAEYLFDKHTLGHGD
release of absorbed ferritin to the culture medium ([1]; after ferritin loading (FIG. 9)): do not release it to the culture medium | uptake of iron binding protein by cells ([1]; incubation 1-4 hours in protein solution (ferritin 0.8 mg/ml; haemoglobin, transferrin 0.1 mg/ml), standard culture conditions): very easily uptake | specificity of transfer from macrophages: cancer cells versus non-cancer cells ([2]; FIG. 11): much more specific to cancer cells than to non-cancer cells | transport to cancer cells from granulocytes ([2]; loaded granulocytes (FIG. 15)): very easily transport | transport to cancer cells from lymphocytes ([2]; loaded lymphocytes (FIG. 16)): very easily transport | transport to cancer cells from macrophages ([2]; loaded macrophages, mouse mammary, colon, canine mammary, human breast, pancreatic, bladder cancer cells): very easily transport | transport to cancer cells from monocytes ([2]; loaded monocytes (FIG. 14)): very easily transport | ferritin received by cancer cells from macrophages versus control ([3]; EMT6 OS: EMT6 cells subjected to oxidative stress before 2 hrs co-culture): more ferritins than control cells | ferritin uptake by cancer cells from macrophages ([3]; co-culture OS: both cell types subjected to oxidative stress before 2 hrs co-culture): even more efficient
